Reference: the supplement of paper PMC12855868

B1: library; numbered along this chain (parent)
chain: MAAAGGARLLRAASAVLGGPAGRWLHHAGSRAGSSGLLRNRGPGGSAEASRSLSVSARARSSSEDKITVHFINRDGETLTTKGKVGDSLLDVVVENNLDIDGFGACEGTLACSTCHLIFEDHIYEKLDAITDEENDMLDLAYGLTDRSRLGCQICLTKSMDNMTVRVPETVADARQSIDVGKTS

Variants of: B1
Experiment: scaled log2 fold change in cell abundance, elesclomol vs control (0 = silent mean, 1 = nonsense mean) (scaled log2 ratio); higher = higher viability under elesclomol (loss of FDX1 cuproptosis function)
Conditions: glucose 10 mM
Experimental: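 Deep mutational scan of full-length human FDX1: a pooled saturation-mutagenesis ORF library (every residue 2-184 mutated to all 19 amino acids plus stop, and silent codons where available) was expressed by lentivirus in FDX1-knockout ABC1 (14 days) or HEK293T (11 days) cells grown with elesclomol (ES) or DMSO control. Variant abundance came from ORF sequencing. The log2 fold change (ES vs control, mean of duplicates) was centred on the silent-variant mean (0) and scaled to the nonsense-variant mean (1). Higher values mean greater viability under ES, i.e. loss of FDX1 function in cuproptosis.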

[1] = with ABC1 FDX1 KO, elesclomol 5 nM, 14 days
[2] = with HEK293T FDX1 KO, elesclomol 40 nM, 11 days
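Also: variant abundance is its share of total variant reads in each endpoint sample, from next-generation sequencing of the integrated ORF PCR-amplified out of genomic DNA.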

| Variant | scaled log2 fold change [1] | scaled log2 fold change [2] |
| --- | --- | --- |
| L140A | -0.069 | -1.25 |
| R31Y | 0.463 | -0.658 |
| R31F | -0.116 | 0.357 |
| P168R | 0.453 | 0.117 |
| P168I | -0.0742 | 0.61 |
| D121R | -0.0191 | 1.32 |
| G102A | 0.0393 | -0.812 |
| G102Q | -0.0113 | 0.76 |
| A28W | -0.122 | 0.863 |
| K66W | -0.5 | -0.676 |
| K66S | -0.679 | -0.304 |
| K66P | -0.38 | -0.254 |
| T114A | -0.0113 | 0.0983 |
| S50I | 0.293 | -1.28 |
| S50E | 0.344 | 0.116 |
| S46C | 0.738 | 0.494 |
| A13L | 0.256 | 0.56 |
| A129M | -0.0116 | – |
| A129D | -0.23 | 0.439 |
| S35G | -0.212 | -1.33 |

| Variant | scaled log2 fold change [1] | scaled log2 fold change [2] |
| --- | --- | --- |
| A49N | -0.529 | -0.853 |
| R74C | 0.324 | 0.937 |
| R74N | -1.08 | 1.31 |
| L90Q | -0.132 | -0.0146 |
| D91I | 0.418 | -0.331 |
| C112E | 1.07 | 0.951 |
| C112L | 0.979 | 1.26 |
| K82H | -0.223 | -0.0273 |
| V180N | 0.00503 | -0.0838 |
| V180D | 0.293 | – |
| R8F | -0.388 | -0.798 |
| R8A | 0.393 | 0.0204 |
| N40S | 0.213 | 0.0876 |
| S159W | 0.0873 | 0.215 |
| L89T | -0.121 | -0.104 |
| L150Y | 0.721 | 0.392 |
| D136Y | 0.0478 | -0.0361 |
| D136E | 0.196 | 0.183 |
| G36Q | -0.138 | 0.311 |
| F103P | 1.14 | 1.17 |

| Variant | scaled log2 fold change [1] | scaled log2 fold change [2] |
| --- | --- | --- |
| F119S | 1.07 | 0.993 |
| F119E | 1.04 | 1.21 |
| E169F | -0.455 | 0.0831 |
| E169P | -0.343 | 0.322 |
| M163R | 0.657 | -0.245 |
| M163Y | 0.547 | -0.538 |
| H122G | -1.06 | – |
| H122L | -0.634 | – |
| L79R | -0.538 | -0.117 |
| L79G | 0.145 | 1.18 |
| L79Y | -0.343 | 0.278 |
| G45K | 0.0509 | -0.713 |
| G45E | 0.346 | 1.07 |
| K158N | -0.716 | -0.562 |
| T109H | -0.34 | -0.84 |
| M137A | -0.189 | 0.285 |
| V171F | 0.0552 | -0.419 |
| V171E | 0.182 | -0.192 |
